Reference: the supplement of paper PMC9170038

Legend:
MS2 coat protein [1] = experiment: apparent KD of MS2 coat protein, switch ON state; designed switch direction (-1 OFF switch, 1 ON switch): -1; higher = weaker reporter binding; details: FMN input: 0 or 200 uM; Eterna round: R93 (includes R88 designs)
Procedure, shortened: (§1)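 The buffer was 100 mM Tris-HCl pH 7.5 with 80 mM KCl and 4 mM MgCl2, used without or with constant ligand. In it, RNA switches transcribed on-chip from Illumina sequencing clusters were titrated with SNAP-549-labelled MS2 coat protein in twofold steps from 0.7 or 1.5 nM to 3 µM. Apparent KD for each design is the median of its normalised cluster binding-curve fits.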

MS2 coat protein [2] = experiment: apparent KD of MS2 coat protein, switch OFF state (with FMN for OFF switches, without FMN for ON switches); designed switch direction (-1 OFF switch, 1 ON switch): -1; higher = weaker reporter binding; details: FMN input: 0 or 200 uM; Eterna round: R93 (includes R88 designs)
Procedure, shortened: as §1

Row | Sequence | apparent KD of MS2 coat protein (MS2 coat protein [1]) [µM] | apparent KD of MS2 coat protein (MS2 coat protein [2]) [µM]
1 | AGCAGGUGAGGAUAUCGAUUAAGAUUAACAUUAUUAUUAAACGAGAAGGCACAUGAGGAUCACCCAUGUAAGGA [Exclusion 4Col] | 0.0434 | 0.0518
2 | UAAAAGUGAGGAUAUUCGGAUAGGAAAACGAAAACCUAUCCGAAGAAGGCACAUGAGGAUCACCCAUGUGGAAU [Mat - Exaclusion 4 - Eli mod - D48] | 0.0313 | 0.036
3 | GGUUGGCGAGGAUAUACAUGAGGAUCACCCAUGUGAGAGAAAAAAGUGAGGAGGGAAAGUAGAAGGCGCUGACG [salish99-ex3-16] | 0.0273 | 0.0419
4 | GGGAUGUCAGGAUAUGUGUAAAGAAUAAAACAAAUAACAACACAGAAGGGACAUGAGGAUCACCCAUGUUACCC [May 39] | 0.017 | 0.0154
5 | AAAUUGUCAGGAUAUCGUAUAACAUGGAAAACAUGGAGAUACGAGAAGGGACAUGAGGAUCACCCAUGUAAAAC [May 95] | 0.0516 | 0.0874
6 | AUAAAGACAGGAUAUACAUGAGGAUCACCCAUGUAAAAAAAAAAAAGUUCCUCAAAAAGUAGAAGGGUCAAUAA [JR_Exc003_Sub014] | 0.0284 | 0.119
7 | AGUUGGCGAGGAUAUACAUGAGGAUCACCCAUGUGAAAUCGAGAAAAAAUAGGGAAAAGUAGAAGGCGCAGACA [Ruby 63] | 0.0206 | 0.0241
8 | AAAAUACAUGAGGAUCACCCAUGUGAGGAUAUCGUAAAGAAAGUGAUCAAAAGAAAUACGAGAAGGCACAUAAA [PK3] | 0.123 | 0.212
9 | GAAAAGAAAGGAUAUAAAACAGAGGAUAUACAUAAAUAAAAACAUGAGGAUCACCCAUGUAGAAGGCUGAAAAG [Meechl Ex2 R2 m2] | 0.0332 | 0.0205
10 | AAAGGGUCAGGAUAUGUACGAACAACAAAACAAAUAACGAUACAGAAGGGACAUGAGGAUCACCCAUGUAUAAA [May 74] | 0.0558 | 0.0706
11 | AAAGGAUCAGGAUAUGUGUGGAAAAAGUGUGUCCAAAAAAAACAUGAGGAUCACCCAUGUAGAAGGGAUCCAAA [Mod 4 of Normal (20/19) by Nando, Round 1] | 0.222 | 0.26
12 | AAAAAUCGAGGAUAUACAUGAGGAUCACCCAUGUGGGAACACGAUUACACAAAAGAAAGUAGAAGGCGAUAAAA [Ex 3 May 22] | 0.0282 | 0.162
13 | GAAAAACAUGAGGAUCACCCAUGUCAGGAUAUGUAGAAAAAGAAAAAAAGAAAAGAAAACAGAAGGGACAAAAG [Mat - Same state - Mayanna Mod - D105] | 0.0326 | 0.0385
14 | ACCAGUACAGGAUAUACAUGAGGAUCACCCAUGUGAGAAUUAAGUGGCGUACCACAAAGUAGAAGGGUACUGGA [Mat - Exclusion 3 - JL mod - D11] | 0.0433 | 0.273
15 | AAGAAGUGAGGAUAUGUCUGUGCGAAAAAAAAAAAGUGCAGACAGAAGGCACAUGAGGAUCACCCAUGUCAAAA [Florian Witold Znaniecki] | 0.0394 | 0.039
16 | AAUAAGUGAGGAUAUGGAAAUAAUAAAUAAAAUACCCUAAACCAGAAGGCACAUGAGGAUCACCCAUGUAAAUA [JR_Exc004_Sub003] | 0.0341 | 0.028
17 | CAAAGGUGAGGAUAUACAGGAAUAUGACGAAAGUCAUAAAAACAUGAGGAUCACCCAUGUAGAAGGCACCACAA [E2 64% 3] | 0.0374 | 0.0573
18 | AACAUGUCAGGAUAUGUACGAAAAAAUAAAAAAAUAAAAGUACAGAAGGGACAUGAGGAUCACCCAUGUCAGGG [EX4 393: Minimal 6] | 0.1 | 0.02
19 | AAAAAGUGAGGAUAUGUCAAAAGUCACAAAAGUGACAAAAGACAGAAGGCACAUGAGGAUCACCCAUGUGAAAG [Mat - Exaclusion 4 - Eli mod - D53] | 0.0289 | 0.0376
20 | AAGACUAGAGGAUAUACAUGAGGAUCACCCAUGUAACUGUCAGGAGACUGACGGAGAAGUAGAAGGCUAGUCAA [Mat - Exclusion 3 - JL mod - D84] | 0.0158 | 0.0194
21 | AAGAAACAUGAGGAUCACCCAUGUGAGGAUAUUGAAAAGAAAAGAAAAGAAAGAAGAACAAGAAGGCACAAAGG [Merenhor] | 0.0394 | 0.0378
22 | AGGAUGUCAGGAUAUGUGUAAAGAAUAAAACAAAUAACAACACAGAAGGGACAUGAGGAUCACCCAUGUUACCC [May 38] | 0.0171 | 0.0177
23 | AAAAAACAUGAGGAUCACCCAUGUGAGGAUAUCGAAAAGUUAAAGAAAAAGACGAAAAUGAGAAGGCGCAAAAA [Fiskers Exclusion D1] | 0.0263 | 0.0239

Row | Sequence | apparent KD of MS2 coat protein (MS2 coat protein [1]) [µM] | apparent KD of MS2 coat protein (MS2 coat protein [2]) [µM]
24 | AACAGUACAGGAUAUACAUGAGGAUCACCCAUGUGAAAAUUAAGUGGAAAACCACAGUGUAGAAGGGUACUGGA [Mat - Exclusion 3 - Eli mod - D53] | 0.0475 | 0.191
25 | AACAGUACAGGAUAUACAUGAGGAUCACCCAUGUGAAAAUUAAGUGGGAGACCACAAGGUAGAAGGGUACUGGA [Mat - Exclusion 3 - Eli mod - D65] | 0.176 | 0.0577
26 | AAAAACCUAGGAUAUACAUGAGGAUCACCCAUGUAAAGAAAAAAAAAGGGAAAAAAAAGUAGAAGGAGGAAGAA [JR_Exc003_Sub1201] | 0.0166 | 0.0186
27 | AUCUACCUAGGAUAUACAUGAGGAUCACCCAUGUACAGUUUCAACUAGGGAUACUCACGUAGAAGGAGGUAGAU [JR_Exc003_Sub1210] | 0.0348 | 0.0212
28 | AAAAAACAUGAGGAUCACCCAUGUGAGGAUAUGCAUAAAAAAAAAAAAAAAAAAAAAUGCAGAAGGCACAUAAA [jn_bayonne] | 0.0401 | 0.0785
29 | UUUAAGUGAGGAUAUACGAAUAGUAAGUAAGUAUAACAGACGUAGAAGGCACAUGAGGAUCACCCAUGUAAAUA [JR_Exc004_Sub305] | 0.0244 | 0.0186
30 | AGUAGUACAGGAUAUACAUGAGGAUCACCCAUGUGAAAAUAAAGUGGCGUACCACAAAGUAGAAGGGUACUACA [Mat - Exclusion 3 - JL mod - D35] | 0.0279 | 0.138
31 | AAUAAGUGAGGAUAUGCAAAUAAUAAAUAAAAUAAAAUAAAGCAGAAGGCACAUGAGGAUCACCCAUGUAAAUA [JR_Exc004_Sub001] | 0.034 | 0.0295
32 | AGCUAGUCAGGAUAUACGAACAUGUCGGAAGACGUGAAGGGACAUGAGGAUCACCCAUGUAGAAGGGACUAGCA [Mat - Exclusion 2 - JL mod - D3] | 0.0331 | 0.136
33 | UCCUUACAUGAGGAUCACCCAUGUUAGGAUAUCUCGCUUGCGCAAUCACAGCGCAAGCAGAGAAGGGACGCGGG [Ledige] | 0.0228 | 0.0291
34 | AGUGAGUCAGGAUAUGCGUGAAGAAUAAAAGAAAUAACAACGCAGAAGGGACAUGAGGAUCACCCAUGUACACA [May 56] | 0.0235 | 0.0207
35 | GCUUGGGAAGGAUAUACAUGAGGAUCACCCAUGUGAGAGAAAAAAGUGAGAAAGAAAAGUAGAAGGUCCUGAGG [salish99-ex3-108] | 0.0712 | 0.152
36 | AAAAAAAAAGGAUAUAAAACAGAGGAUAUACAUAAAUAAAAACAUGAGGAUCACCCAUGUAGAAGGCUGAAAAA [Meechl Ex2 R2 m0] | 0.0187 | 0.0222
37 | AUAAAACAUGAGGAUCACCCAUGUGAGGAUAUAGGAAACAAACAAACAAACAAACAAACUAGAAGGCACAAUAA [Amethyst 10] | 0.013 | 0.0167
38 | AAGAAACAUGAGGAUCACCCAUGUAAGGAUAUCUAAAAGAAAAGAAAAGAAAGAAGAAGGAGAAGGUACAAAGG [Sehertawy Intef I] | 0.0261 | 0.03
39 | AAGAACACAGGAUAUACAUGAGGAUCACCCAUGUAAAAGAAAGAGGGAAAAGAGAAAAGUAGAAGGGUGAAGAA [Hugronaphor] | 0.0331 | 0.0314
40 | AGGAAACAUGAGGAUCACCCAUGUAAGGAUAUGAACGAAAUAAAAUAAAAAUAAAAGUUCAGAAGGUACGAAAA [Mat - Exclusion 1 - Eli mod - D9] | 0.0221 | 0.0403
41 | AGUUGGCGAGGAUAUACAUGAGGAUCACCCAUGUGAUAGAAAAAAGUGAGAAAGAAAAGUAGAAGGCGCUGACA [Mat - Exclusion 3 - Lego mod - D92] | 0.0699 | 0.254
42 | AAGAACGUAGGAUAUACAUGAAAGAAAGAAAAGAAAAGAAAACAUGAGGAUCACCCAUGUAGAAGGACGUAGAA [EteRNA is fun!] | 0.02 | 0.0221
43 | AAUAAGUCAGGAUAUACUAUGUCAGGAGAGAGACUGACUAUGUAGAAGGGACAUGAGGAUCACCCAUGUAAUAA [JR_Exclusion4_Sub5] | 0.0474 | 0.0361
44 | AAUAAACAUGAGGAUCACCCAUGUAAGGAUAUGCGAACAAUAAGAAGACAAUAAUAAAGCAGAAGGUACAAGAG [Ex1 sub 1] | 0.027 | 0.05
45 | AGGAGACAUGAGGAUCACCCAUGUUAGGAUAUGAACGAAAAUAAAUAAAAAUAAAAGUUCAGAAGGGACGAAAA [66%, Wbt, 8] | 0.0433 | 0.0447
